This note sets out measurements from paper PMC4937444.

This series relates to MukB (Escherichia coli). The experiment in a line: pull-down (MU topological loading assay). To be noted: no ATP, 750 mM KCl wash, MU assay: low salt 25 mM KCl loading (37 °C), His-tag affinity beads, typically 7.3 pmol MukB and 100 ng DNA, SSB EMSA: HKD buffer (25 mM …). (In general: Mobility shift assays separate free from complexed probe on a gel.)
cccDNA (pUC19/pUC119): the binding signal (% DNA retrieved) was 4.6.

For ldsDNA, the binding signal (% DNA retrieved) worked out at 0.6.

With pUC119 cssDNA, the binding signal (% DNA retrieved) turned out to be 10.6.
